Biological target: T1, ACE2-Fc (LG chem) (human, UniProt Q9BYF1 18-740)
T1 construct: extracellular domain; also called ACE2-ED; extracellular domain of human Angiotensin Converting Enzyme 2 protein; not shown: Fc part of ACE2-Fc
Assay: BLI (Octet QKe), ACE2-Fc captured on Protein A sensor, analyte at 100 ug/mL

T1 sequence (Q9BYF1 18-740): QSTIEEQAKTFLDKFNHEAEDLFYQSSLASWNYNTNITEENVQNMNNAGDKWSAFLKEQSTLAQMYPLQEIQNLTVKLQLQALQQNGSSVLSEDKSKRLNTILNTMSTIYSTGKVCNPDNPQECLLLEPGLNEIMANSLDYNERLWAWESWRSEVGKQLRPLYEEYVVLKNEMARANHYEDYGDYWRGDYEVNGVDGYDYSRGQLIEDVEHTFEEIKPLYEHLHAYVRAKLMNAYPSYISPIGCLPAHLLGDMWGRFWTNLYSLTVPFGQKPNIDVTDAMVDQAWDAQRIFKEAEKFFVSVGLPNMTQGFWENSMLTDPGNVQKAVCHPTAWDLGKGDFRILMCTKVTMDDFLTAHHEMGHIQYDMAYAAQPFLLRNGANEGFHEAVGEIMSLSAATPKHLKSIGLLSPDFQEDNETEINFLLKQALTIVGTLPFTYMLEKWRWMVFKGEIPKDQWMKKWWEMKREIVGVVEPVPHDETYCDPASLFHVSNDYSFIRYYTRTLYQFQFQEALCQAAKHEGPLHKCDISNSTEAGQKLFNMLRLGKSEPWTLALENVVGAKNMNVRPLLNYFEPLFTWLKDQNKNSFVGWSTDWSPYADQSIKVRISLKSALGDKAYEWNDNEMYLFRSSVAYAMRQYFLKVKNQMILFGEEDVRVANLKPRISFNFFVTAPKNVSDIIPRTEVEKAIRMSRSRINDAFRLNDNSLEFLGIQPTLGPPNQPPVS

B1: Hepatitis B surface antigen (HBsAg) VLP (other)
chain: MESTTSGFLGPLLVLQAGFFLLTRILTIPQSLDSWWTSLNFLGGAPTCPGQNSQSPTSNHSPTSCPPICPGYRWMCLRRFIIFLFILLLCLIFLLVLLDYQGMLPVCPLLPGTSTTSTGPCKTCTIPAQGTSMFPSCCCTKPSDGNCTCIPIPSSWAFARFLWEWASVRFSWLSLLVPFVQWFAGLSPTVWLSVIWMMWYWGPSLYNILSPFLPLLPIFFCLWVYI
notes: also called HBsAg1
ACE2 Binding activity: 0.24

— US20250302942A1 (LG CHEM, published 2025)
